# Assay results as given in patent publication US20220332804A1 (CSL INNOVATION, published 2022).
# Changes are numbered by the printed parent chain.
# T1: human C2 M316A (human, UniProt P06681 21-752)
# T1 sequence: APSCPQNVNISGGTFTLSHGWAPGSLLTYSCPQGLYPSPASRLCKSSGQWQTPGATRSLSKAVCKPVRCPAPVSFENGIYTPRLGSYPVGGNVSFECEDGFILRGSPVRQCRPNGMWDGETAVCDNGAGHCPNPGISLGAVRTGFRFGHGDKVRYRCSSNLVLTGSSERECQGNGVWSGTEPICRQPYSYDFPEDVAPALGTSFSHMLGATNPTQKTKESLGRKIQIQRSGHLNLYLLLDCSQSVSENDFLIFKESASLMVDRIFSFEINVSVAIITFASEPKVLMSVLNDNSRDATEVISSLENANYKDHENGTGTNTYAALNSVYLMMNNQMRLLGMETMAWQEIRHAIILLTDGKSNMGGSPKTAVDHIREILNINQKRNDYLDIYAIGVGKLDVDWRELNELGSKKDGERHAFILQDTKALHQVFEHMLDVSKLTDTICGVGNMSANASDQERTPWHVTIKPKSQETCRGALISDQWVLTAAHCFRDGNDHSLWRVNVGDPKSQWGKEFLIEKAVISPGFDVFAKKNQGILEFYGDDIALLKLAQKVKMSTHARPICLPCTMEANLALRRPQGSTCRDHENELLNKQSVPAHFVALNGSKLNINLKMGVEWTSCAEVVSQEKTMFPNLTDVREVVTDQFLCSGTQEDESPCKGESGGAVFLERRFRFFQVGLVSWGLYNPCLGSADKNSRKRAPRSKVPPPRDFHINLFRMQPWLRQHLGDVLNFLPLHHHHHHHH
# T2: human C2 D417A (human, UniProt P06681 21-752)
# T2 sequence: T1 sequence with A296M, D397A
# T3: human C2 A444S (human, UniProt P06681 21-752)
# T3 sequence: T1 sequence with A296M, A424S
# T4: human C2 H446A (human, UniProt P06681 21-752)
# T4 sequence: T1 sequence with A296M, H426A
# B1: RF16-226 (antibody, human IgG4 S228P, lambda)
# heavy: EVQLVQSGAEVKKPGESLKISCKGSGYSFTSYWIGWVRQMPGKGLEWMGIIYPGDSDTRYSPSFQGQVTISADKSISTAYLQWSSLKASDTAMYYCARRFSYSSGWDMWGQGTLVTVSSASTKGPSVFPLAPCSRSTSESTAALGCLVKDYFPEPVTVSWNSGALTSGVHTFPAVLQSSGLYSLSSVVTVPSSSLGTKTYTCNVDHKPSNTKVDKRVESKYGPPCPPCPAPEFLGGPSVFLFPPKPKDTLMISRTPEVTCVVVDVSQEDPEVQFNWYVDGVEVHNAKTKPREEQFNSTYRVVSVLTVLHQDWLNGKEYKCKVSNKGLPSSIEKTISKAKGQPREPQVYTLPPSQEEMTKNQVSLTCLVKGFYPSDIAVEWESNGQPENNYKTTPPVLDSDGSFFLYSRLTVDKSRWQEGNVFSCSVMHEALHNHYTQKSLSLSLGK
# light: SYELTQPPSVSVSPGQTARITCSGDALTSKYVAWYQQKSGLAPLLVIYEDTRRPSGIPAKFSGSSSGSVATLTISGAHGDDEADYYCYSTDASGHQRVFGGGTKLTVLSQPKAAPSVTLFPPSSEELQANKATLVCLISDFYPGAVTVAWKADGSPVKAGVETTKPSKQSNNKYAASSYLSLTPEQWKSHRSYSCQVTHEGSTVEKTVAPTECS
# notes: pH-dependent anti-C2 antibody from a phage display library; also called WT
# Columns and labels:
# Test in all cases: SPR, antibody captured, C2 as analyte;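 further: biacore SPR at 37 °C, anti-C2 mAbs captured via goat anti-human IgG on CM5 chips, double-referenced sensorgrams fit to a 1:1 kinetic or steady-state model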
# human C2 M316A = target: T1, human C2 M316A
# human C2 D417A = target: T2, human C2 D417A
# human C2 A444S = target: T3, human C2 A444S
# human C2 H446A = target: T4, human C2 H446A
binder,measurement,setting,value
B1,Kd,human C2 M316A,12.3 nM
same,Kd,human C2 D417A,17.9 nM
same,Kd,human C2 A444S,19.8 nM
same,Kd,human C2 H446A,16.3 nM
